One may read the Kd as a measure of binding affinity in units of concentration. Lower therefore signals higher affinity. The term IC50 denotes the concentration that inhibits the measured activity by half. Low values mean greater potency, high ones weaker potency.

The results in this text go back to patent US20220381793A1, “COMPOSITIONS AND METHODS FOR IDENTIFYING MHC-II BINDING PEPTIDES” (priority 2021, published 2022).

The target of experiment [1] is T1, “empty” DR4-LZ (DRA*01:01/DRB1*04:01 ectodomains with Jun/Fos leucine zippers, non-covalent heterodimer displayed on yeast through Aga2p). Put plainly: flow. The note with it: chains peptide; modification not given.
In experiment [2] the target is T2, “empty” DQ6-LZ (DQA1*01:02/DQB1*06:02 ectodomains with Fos/Jun leucine zippers, non-covalent heterodimer displayed on yeast through Aga2p). The experiment can be described thus: competition. The note with it: chains peptide; modification not given.
Experiment [3] addresses T2, “empty” DQ6-LZ (DQA1*01:02/DQB1*06:02 …). The experiment can be described thus: flow. The note with it: chains peptide; modification not given.
For experiment [4], the target named is T3, “empty” DR4-LZ (DRA*01:01/DRB1*04:01 ectodomains with Jun/Fos leucine zippers, non-covalent heterodimer displayed on yeast through Aga2p) (human).
In experiment [5] the target is T1, “empty” DR4-LZ (DRA*01:01/DRB1*04:01 …). The experiment can be described thus: competition. The note with it: chains peptide; modification not given.
Experiment [6] deals with T3, “empty” DR4-LZ (DRA*01:01/DRB1*04:01 …). The source holds these as a separate data set.

Where two headings read alike, the source gives them in different places. No end group written: not given here. Ahx = NCCCCCC(=O)O A value given as a limit tells only on which side of the number the result lay.

B1: Bio-HA306-318 (biotin-Ahx-…) (peptide)
chain: PKYVKQNTLKLAT
In turn, B1 showed a Kd in experiment [1] of 33.2 µM.

B2: HCRT85-99, O43612 85-99 (peptide)
chain: QASGNHAAGILTMGR
Take B2: the IC50 in experiment [2] was 25.2 µM.

B3: HCRT1-13-Bio (…-Ahx-biotin) (peptide)
chain: MNLPSTKVSWAAVK-{Ahx-biotin}
For B3, the Kd in experiment [3] was 12.5 µM.

B4: S764-780, P0DTC2 764-780 (peptide)
peptide: NRALTGIAVEQDKNTQE
modifications: not checked
As to B4, the % competition in experiment [4] was less than 50%.

B5: non-biotinylated HA306-318 (peptide)
chain: PKYVKQNTLKLAT
As for B5, the IC50 in experiment [5] came to 66.8 µM.

B6: S1058-1074, P0DTC2 1058-1074 (peptide)
peptide: HGVVFLHVTYVPAQEKN
modifications: not checked
With B6, the % competition in experiment [6] came to 75%.
